Measurements published in article PMC5737894.
Numbering of substitutions follows the chain as printed.

Tests used:
[1] = target: T1, DRB4 (Arabidopsis thaliana, UniProt Q8H1D4 1-355); test: ITC
T1 sequence: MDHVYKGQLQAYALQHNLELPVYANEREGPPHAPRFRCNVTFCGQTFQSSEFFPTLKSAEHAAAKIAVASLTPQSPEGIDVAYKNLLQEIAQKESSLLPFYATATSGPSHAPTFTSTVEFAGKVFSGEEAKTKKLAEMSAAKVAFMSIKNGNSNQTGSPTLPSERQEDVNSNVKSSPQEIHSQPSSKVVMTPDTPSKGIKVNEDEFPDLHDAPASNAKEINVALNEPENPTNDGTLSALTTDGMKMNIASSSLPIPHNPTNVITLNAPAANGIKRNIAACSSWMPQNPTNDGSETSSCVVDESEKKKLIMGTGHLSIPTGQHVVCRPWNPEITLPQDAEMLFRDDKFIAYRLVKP

[2] = target: T2, DRB4D2D1 (Arabidopsis thaliana, UniProt Q8H1D4 1-3+82-150+73-81+4-72, internal_change); test: ITC
T2 sequence: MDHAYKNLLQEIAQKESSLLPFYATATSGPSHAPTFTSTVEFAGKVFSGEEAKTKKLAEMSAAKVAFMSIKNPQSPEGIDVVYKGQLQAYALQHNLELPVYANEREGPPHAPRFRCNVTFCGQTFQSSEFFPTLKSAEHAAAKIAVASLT

[3] = target: T3, DRB4C (Arabidopsis thaliana, UniProt Q8H1D4 154-355); test: EMSA
T3 sequence: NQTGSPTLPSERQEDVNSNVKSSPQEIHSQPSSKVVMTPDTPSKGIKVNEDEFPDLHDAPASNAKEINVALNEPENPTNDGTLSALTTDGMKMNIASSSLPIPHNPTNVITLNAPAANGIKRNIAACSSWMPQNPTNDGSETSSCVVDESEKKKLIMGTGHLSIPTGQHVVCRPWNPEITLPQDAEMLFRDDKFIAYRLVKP

[4] = target: T4, DRB4D1D2 H32A/K133A (Arabidopsis thaliana, UniProt Q8H1D4 1-153, H32A;K133A); test: EMSA
T4 sequence: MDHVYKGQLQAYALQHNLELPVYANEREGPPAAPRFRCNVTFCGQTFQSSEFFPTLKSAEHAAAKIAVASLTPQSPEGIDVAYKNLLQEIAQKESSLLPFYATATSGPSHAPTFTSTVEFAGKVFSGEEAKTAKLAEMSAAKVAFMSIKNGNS

[5] = target: T5, DRB4D1D2 (Arabidopsis thaliana, UniProt Q8H1D4 1-153); test: ITC
T5 sequence: T4 sequence with A32H, A133K

[6] = target: T6, DRB4 H32A/K133A (Arabidopsis thaliana, UniProt Q8H1D4 1-355, H32A;K133A); test: EMSA
T6 sequence: T1 sequence with H32A, K133A

B1: 80 bp dsRNA (dsRNA)
RNA 1: GGGUGCUGUUUCUCGUGUUCGUGUUCGUUUCUCUUCUCUUGUCCUUGUUCUGUUCUCCUUUGUUCGUUCCUGUUCCCCUU
RNA 2: AAGGGGAACAGGAACGAACAAAGGAGAACAGAACAAGGACAAGAGAAGAGAAACGAACACGAACACGAGAAACAGCACCC
[1]
  Kd: 120 ± 40 nM
[2]
  Kd: 4000 ± 400 nM
[3]
  binding result: no binding
[4]
  binding result: no binding
[5]
  Kd: 400 ± 30 nM
[6]
  binding result: no binding
